Patent EP4725955A1, “PEPTIDE TARGETING C-MET, PHARMACEUTICAL COMPOSITION COMPRISING SAID PEPTIDE AND USE THEREOF” (Nanjing Anji Biotechnology Co., Ltd., priority 2023, dated 2025)
In brackets after ≈: the same amount, converted by molar mass. Where a SMILES comes first, the peptide text is derived from it. Where no end group is shown, it is not given here. The star is where a group is joined. Paclitaxel(2'-O-succinyl) = CC(=O)O[C@H]1C(=O)[C@@]2(C)[C@H]([C@H](OC(=O)c3ccccc3)[C@]3(O)C[C@H](OC(=O)[C@H](OC(=O)CCC(=O)*)[C@@H](NC(=O)c4ccccc4)c4ccccc4)C(C)=C1C3(C)C)[C@]1(OC(C)=O)CO[C@@H]1C[C@@H]2O; FITC = O=C1OC2(c3ccc(O)cc3Oc3cc(O)ccc32)c2ccc(NC(=S)*)cc21; Acp = not defined here

Key:
[1] = test system: human hepatic stellate cell LX-2; assay: Specificity: flow cytometry binding of peptide to LX-2 cells that barely express c-Met; format: cell-based; conditions: concentration of up to 10 µM, cells barely expressing c-Met, FIG. 8
Description: Human hepatic stellate cells LX-2 cultured in a 1640 culture solution were collected, and washed twice with pre-cooled PBS. 1 mL of 1% BSA solution was added into the washed cells, and then the above mixed system were placed on a rotary mixer and incubated for 30 min at 4°C. 10 µM of FITC-P1-AI peptide solution and FITC-CM7-1 were respectively added in the dark to form two groups, and the above mixed systems were placed on the rotary mixer and incubated for 1 h at 4°C in the dark. After the incubation was completed, the mixed system of the cells was centrifuged for 5 min at 800 rpm, and then supernatant was discarded. The cells were washed twice with pre-cooled PBS, and the concentration of the cells was adjusted to 1×10^6 cells/mL using PBS. 3 parallel replicate wells were set up at concentrations of 1 µM, 5 µM and 10 µM for cells in each group, with 0.5 mL prepared per sample; and a flow cytometer was used to detect the binding of the peptide to LX-2 cells.

[2] = biological target: c-Met positive cell MKN-45 (Homo sapiens, UniProt P08581); assay: Flow cytometry detection of binding of FITC-labelled peptide to c-Met positive cell MKN-45; format: cell-based; conditions: for binding affinity to c-Met positive cell MKN45 compared with P1-AI: alanine scanning, FITC-labelled peptides 10 µM to 0.625 µM, FIG. 12; for affinity to c-Met positive cell MKN45 relative to CM7-1: comparison of EC50 with CM7-1, FITC-labelled peptides tested; for binding to c-Met positive cell MKN45, dose dependence: different peptide concentrations, flow cytometry
Chain of c-Met positive cell MKN-45 (P08581 25-1390): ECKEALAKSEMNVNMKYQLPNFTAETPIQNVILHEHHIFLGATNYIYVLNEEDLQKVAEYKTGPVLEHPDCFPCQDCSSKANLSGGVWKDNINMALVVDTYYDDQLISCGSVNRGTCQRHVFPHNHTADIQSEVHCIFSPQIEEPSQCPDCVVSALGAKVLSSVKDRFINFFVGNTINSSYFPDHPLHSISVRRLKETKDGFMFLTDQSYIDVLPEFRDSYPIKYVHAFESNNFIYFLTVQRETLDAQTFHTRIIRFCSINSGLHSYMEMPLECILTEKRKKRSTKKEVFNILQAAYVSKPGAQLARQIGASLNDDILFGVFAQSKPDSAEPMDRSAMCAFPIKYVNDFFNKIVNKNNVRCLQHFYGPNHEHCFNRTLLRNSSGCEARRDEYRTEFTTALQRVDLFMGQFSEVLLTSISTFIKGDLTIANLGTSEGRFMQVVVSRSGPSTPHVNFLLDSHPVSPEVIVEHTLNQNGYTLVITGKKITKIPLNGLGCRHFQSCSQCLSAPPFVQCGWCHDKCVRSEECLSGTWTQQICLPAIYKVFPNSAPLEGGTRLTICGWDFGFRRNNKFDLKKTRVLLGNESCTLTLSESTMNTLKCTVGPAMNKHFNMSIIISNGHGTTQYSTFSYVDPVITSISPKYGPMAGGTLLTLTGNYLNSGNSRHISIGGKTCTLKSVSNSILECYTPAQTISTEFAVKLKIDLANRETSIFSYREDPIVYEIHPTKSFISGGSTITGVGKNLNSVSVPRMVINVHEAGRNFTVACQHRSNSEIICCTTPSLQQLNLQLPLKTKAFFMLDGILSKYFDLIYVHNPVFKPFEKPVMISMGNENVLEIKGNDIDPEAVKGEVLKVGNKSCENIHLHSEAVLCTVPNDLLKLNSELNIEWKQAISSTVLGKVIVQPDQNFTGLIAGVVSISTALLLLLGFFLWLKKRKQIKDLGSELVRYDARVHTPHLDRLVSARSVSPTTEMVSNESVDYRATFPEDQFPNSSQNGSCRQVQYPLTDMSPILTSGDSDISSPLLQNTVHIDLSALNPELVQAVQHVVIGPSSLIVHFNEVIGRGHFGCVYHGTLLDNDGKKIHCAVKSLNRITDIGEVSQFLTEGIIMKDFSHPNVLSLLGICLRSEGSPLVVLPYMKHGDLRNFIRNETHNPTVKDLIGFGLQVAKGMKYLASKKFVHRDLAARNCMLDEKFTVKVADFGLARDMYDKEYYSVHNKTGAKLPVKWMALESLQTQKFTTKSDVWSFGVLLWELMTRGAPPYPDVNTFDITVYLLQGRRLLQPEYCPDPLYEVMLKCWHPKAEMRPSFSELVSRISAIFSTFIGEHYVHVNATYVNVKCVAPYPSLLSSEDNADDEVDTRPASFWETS
Description: MKN 45 cells cultured in a 1640 culture solution (Nanjing Senbeijia Biotechnology Co., Ltd.) were collected, and washed twice with pre-cooled PBS. 1 mL of 1% BSA solution was added into the washed cells, and then the above mixed system was placed on a rotary mixer (Lichen Technology Co., Ltd.) and incubated for 30 min at 4°C. Different concentrations of FITC-P1-AI, FITC-CM7-1, FITC-CM7-1.1, FITC-CM7-1.2, FITC-CM7-1.3, FITC-CM7-1.4, FITC-CM7-1.5 and FITC-CM7-1.6 peptide solutions were respectively added in the dark to obtain multiple groups, and then the mixtures were placed on the rotary mixer and incubated for 1 h at 4°C in the dark. After the incubation was completed, the mixed system of the cells was centrifuged for 5 min at 800 rpm, and then supernatant was discarded. The cells were washed twice with pre-cooled PBS, and the concentration of the cells was adjusted to 1×10^6 cells/mL using PBS. 3 parallel replicate wells were set up for cells in each group, with 0.5 mL prepared per sample; and a flow cytometer was used to detect the binding of the peptide to c-Met positive cell MKN-45, EC50 data and a binding curve were generated. […] Table 2 Binding affinity of peptide to MKN-45
MKN-45 cells cultured in a 1640 culture solution were collected, and washed twice with pre-cooled PBS 1 mL of 1% BSA solution was added into the washed cells, and then the above mixed system was placed on a rotary mixer and incubated for 30-60 min at 4°C. 10 µM of FITC-P1-AI peptide solution and FITC-CM7-1 were respectively added in the dark to form two groups, and the above mixed systems were placed on the rotary mixer and incubated for 1 h at 4°C in the dark. After the incubation was completed, the mixed system of the cells was centrifuged for 5 min at 800 rpm, and then supernatant was discarded. The cells were washed 1-2 times with pre-cooled PBS, and then the concentration of the washed cells was adjusted to 1×10^6 cells/mL by using PBS. 3 parallel replicate wells were set up for cells in each group, with 0.5 mL prepared per sample; and a flow cytometer was used to detect the binding of the peptide to c-Met positive cells.
The MKN-45 cells cultured in a 1640 culture solution were collected, and washed twice with pre-cooled PBS. […] After the incubation was completed, the mixed system of the cells was centrifuged for 5 min at 800 rpm, and then supernatant was discarded. The cells were washed 1-2 times with pre-cooled PBS, and then the concentration of the washed cells was adjusted to 1×10^6 cells/mL by using PBS. 3 parallel replicate wells were set up for cells in each group, with 0.5 mL prepared per sample; and a flow cytometer was used to detect the binding of the peptide to the c-Met positive cell MKN-45. […] Table 4 Sequences of Peptides

[3] = Solubility detection of peptide in ultrapure water (visual); format: physicochemical
Description: 13.4 mg of CM7-1 and 15 mg of P1-AI were respectively weighed and dissolved using ultrapure (UP) water (prepared using Youpu Pure Water/Ultrapure Water Manufacturing System (UPR-II-10T)).

[4] = Solubility of drug and drug-peptide conjugate in water (supersaturated solution, HPLC standard curve); format: physicochemical
Description: The peak areas of the series standard solutions were detected via HPLC (mobile phase: 0.065% TFA water + 0.05% TFA; chromatographic column: YMC-TriartC18; wavelength: 220 nm), so as to construct a concentration-peak area standard curve, as shown in FIG. 13. In FIG. 13, the horizontal axis represents the concentration, and the longitudinal axis represents the peak area.
The peak area of the sample was detected via HPLC, and the solubility value of the sample in water was calculated by the concentration-peak area standard curve. Table 5 Solubility Value of Sample in Water

[5] = test system: MKN-45 subcutaneous xenograft tumor; assay: Living imaging of tissue distribution in MKN-45 subcutaneous xenograft tumor mice; format: in vivo, nude mice; conditions: 5 mg/kg via tail vein, tumor about 400 mm^3, FIG. 11
Description: In MKN-45 subcutaneous xenograft tumor mice (nude mice were purchased from Changzhou Kavens Laboratory Animal Co., Ltd), 5X10^6 MKN45 cells were subcutaneously implanted into nude mice; and when the volume of the tumor was about 400 mm^3, 5 mg/kg Cy5-P1-AI was injected via a tail vein, and its tissue distribution was analyzed using a living imaging instrument. […] In the figure, a circle area is a tumor site.

[6] = literature values; cited from earlier work
c-Met protein = c-Met protein (UniProt P08581 25-932, limits assumed); assay: microscale thermophoresis (MST), FITC-peptide with titrated c-Met protein
Chain of c-Met protein (P08581 25-932 limits assumed): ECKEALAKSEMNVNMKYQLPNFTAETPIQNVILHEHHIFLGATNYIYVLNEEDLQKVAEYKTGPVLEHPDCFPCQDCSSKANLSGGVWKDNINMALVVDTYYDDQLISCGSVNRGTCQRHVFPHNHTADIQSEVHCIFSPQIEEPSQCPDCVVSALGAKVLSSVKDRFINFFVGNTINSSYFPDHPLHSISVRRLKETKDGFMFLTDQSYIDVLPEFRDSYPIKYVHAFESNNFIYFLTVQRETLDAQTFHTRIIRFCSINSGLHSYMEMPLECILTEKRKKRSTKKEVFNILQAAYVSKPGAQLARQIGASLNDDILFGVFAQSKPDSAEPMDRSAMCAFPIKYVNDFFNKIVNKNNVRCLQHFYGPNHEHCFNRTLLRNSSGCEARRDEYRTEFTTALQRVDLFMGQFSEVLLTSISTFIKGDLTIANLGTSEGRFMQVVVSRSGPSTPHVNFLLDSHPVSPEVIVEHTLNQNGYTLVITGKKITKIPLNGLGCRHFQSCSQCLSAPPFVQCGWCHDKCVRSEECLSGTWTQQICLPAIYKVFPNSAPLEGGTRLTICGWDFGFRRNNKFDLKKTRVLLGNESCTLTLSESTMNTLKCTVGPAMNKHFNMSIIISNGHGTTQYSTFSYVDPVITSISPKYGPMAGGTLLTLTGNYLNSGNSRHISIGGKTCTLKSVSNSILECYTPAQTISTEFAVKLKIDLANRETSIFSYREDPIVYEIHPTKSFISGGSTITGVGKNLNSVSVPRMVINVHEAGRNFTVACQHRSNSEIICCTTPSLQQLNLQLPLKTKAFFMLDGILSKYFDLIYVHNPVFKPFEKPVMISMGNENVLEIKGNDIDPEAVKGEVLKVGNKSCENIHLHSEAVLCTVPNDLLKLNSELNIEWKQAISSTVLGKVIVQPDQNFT

[7] = biological target: T1, c-Met on c-Met positive human gastric cancer cell MKN-45 (human, UniProt P08581 25-1390); assay: flow cytometry, FITC-peptide (0.625-10 µM) on MKN-45 cells
T1 construct: whole, on cells; also called hepatocyte growth factor receptor; HGFR
T1 sequence (P08581 25-1390): as the sequence (P08581 25-1390) above

[8] = biological target: T1, c-Met on c-Met positive human gastric …; assay: flow cytometry, FITC-peptide on c-Met positive MKN-45 cells

## FITC-RSPYANS (not fully specified; FITC label) [FITC-P1-AI]
[1]
  binding to LX-2 cells: barely binds

## ASPYANS [P1-AI-1]
[2]
  binding affinity to c-Met positive cell MKN45 compared with P1-AI: reduced

## DQIIANN [CM7-1, DQIIANN, reference compound]
[3]; concentration 6 mM
  state in water: completely cloudy state

## RAPYANS [P1-AI-2]
[2]
  binding affinity to c-Met positive cell MKN45 compared with P1-AI: reduced

## CC(=O)O[C@H]1C(=O)[C@@]2(C)[C@H]([C@H](OC(=O)c3ccccc3)[C@]3(O)C[C@H](OC(=O)[C@H](OC(=O)CCC(=O)N[C@@H](CCCNC(=N)N)C(=O)N[C@@H](CO)C(=O)N4CCC[C@H]4C(=O)N[C@@H](Cc4ccc(O)cc4)C(=O)N[C@@H](C)C(=O)N[C@@H](CC(N)=O)C(=O)N[C@@H](CO)C(=O)O)[C@@H](NC(=O)c4ccccc4)c4ccccc4)C(C)=C1C3(C)C)[C@]1(OC(C)=O)CO[C@@H]1C[C@@H]2O [PTX-P1-AI] ({Paclitaxel(2'-O-succinyl)}-RSPYANS-OH; N-terminus assumed)
[4]
  Solubility increasing fold of drug-peptide conjugate compared with drug: 46.33 fold

## CC[C@@]1(O)C(=O)OCc2c1cc1n(c2=O)Cc2cc3ccccc3nc2-1 [CPT, camptothecin]
[4]; thermodynamic from solid
  solubility at 15 min: 0.084 µg/mL (≈ 0.241 µM)

## RSAYANS [P1-AI-3]
[2]
  binding affinity to c-Met positive cell MKN45 compared with P1-AI: reduced

## RSPAANS [P1-AI-4]
[2]
  binding affinity to c-Met positive cell MKN45 compared with P1-AI: increased binding affinity
[2]; conclusion of Example 9
  binding affinity to c-Met compared with CM7-1: superior

## DQIIANA [CM7-1.6]
[2]
  affinity to c-Met positive cell MKN45 relative to CM7-1: increased affinity

## CC(=O)O[C@@]12CO[C@@H]1C[C@H](O)[C@@]1(C)C(=O)[C@H](O)C3=C(C)[C@@H](OC(=O)[C@H](OC(=O)CCC(=O)N[C@@H](CCCNC(=N)N)C(=O)N[C@@H](CO)C(=O)N4CCC[C@H]4C(=O)N[C@@H](Cc4ccc(O)cc4)C(=O)N[C@@H](C)C(=O)N[C@@H](CC(N)=O)C(=O)N[C@@H](CO)C(=O)O)[C@@H](NC(=O)OC(C)(C)C)c4ccccc4)C[C@@](O)([C@@H](OC(=O)c4ccccc4)[C@H]21)C3(C)C [DOC-P1-AI]
[4]
  Solubility increasing fold of drug-peptide conjugate compared with drug: 1.62×10^5 fold

## Cy5-RSPYANS [Cy5-P1-AI]
[5]
  tissue distribution by living imaging: enriched in cancer sites highly expressing c-Met

## DQAIANN [CM7-1.3]
[2]
  affinity to c-Met positive cell MKN45 relative to CM7-1: significantly increased affinity
  binding to c-Met positive cell MKN45, dose dependence: dose-dependent

## DAIIANN [CM7-1.2]
[2]
  affinity to c-Met positive cell MKN45 relative to CM7-1: significantly increased affinity
  binding to c-Met positive cell MKN45, dose dependence: dose-dependent

## RSPYANS [P1-AI, RSPYANS]
[3]; concentration 19 mM
  state in water: clear solution

## DQIAANN [CM7-1.4]
[2]
  affinity to c-Met positive cell MKN45 relative to CM7-1: increased affinity

## CCc1c2c(nc3ccc(OCC(=O)N4CCCCC4)cc13)-c1cc3c(c(=O)n1C2)COC(=O)[C@]3(O)CC [7-ethyl-10-[2-oxo-2-(piperidinyl)ethoxy]camptothecin]
[6]
  solubility in water: about 6.22 µg/mL

B1: FITC-P1-AI (FITC-RSPYANS) (peptide)
peptide: {FITC-Acp}-RSPYANS
modifications: reading uncertain
notes: Synthetic 7-mer made by solid-phase synthesis; Molecular weight 1296.36
c-Met protein
  Kd: 41.1 nM
  fold increase of affinity against CM7-1: 30.9 fold

B2: FITC-P1-AI-2 (FITC-RAPYANS) (peptide)
peptide: {FITC}-RAPYANS
notes: Alanine variant of P1-AI at position 2
[7]
  binding result: binds

B3: FITC-P1-AI-3 (FITC-RSAYANS) (peptide)
peptide: {FITC}-RSAYANS
notes: Alanine variant of P1-AI at position 3
[7]
  binding result: binds

B4: FITC-P1-AI-6 (FITC-RSPYAAS) (peptide)
peptide: {FITC}-RSPYAAS
notes: Alanine variant of P1-AI at position 6; also called P1-Al-6
[7]
  binding result: binds

B5: FITC-P1-AI-4 (FITC-RSPAANS) (peptide)
peptide: {FITC}-RSPAANS
notes: Alanine variant of P1-AI at position 4
[7]
  binding result: binds

B6: FITC-P1-AI-1 (FITC-ASPYANS) (peptide)
peptide: {FITC}-ASPYANS
notes: Alanine variant of P1-AI at position 1
[7]
  binding result: binds

B7: FITC-CM7-1 (FITC-DQIIANN) (peptide)
peptide: {FITC}-DQIIANN
notes: tested as the FITC-labelled form; Molecular weight 1289.36
[8]
  EC50: 9500 nM
c-Met protein
  Kd: 1270 nM

B8: FITC-CM7-1.6 (FITC-DQIIANA) (peptide)
peptide: {FITC}-DQIIANA
notes: Alanine variant of CM7-1 at position 7
[8]
  EC50: 5050 nM

B9: FITC-CM7-1.3 (FITC-DQAIANN) (peptide)
peptide: {FITC}-DQAIANN
notes: Alanine variant of CM7-1 at position 3
[8]
  EC50: 45.6 nM

B10: FITC-CM7-1.4 (FITC-DQIAANN) (peptide)
peptide: {FITC}-DQIAANN
notes: Alanine variant of CM7-1 at position 4
[8]
  EC50: 5370 nM

B11: FITC-CM7-1.1 (FITC-AQIIANN) (peptide)
peptide: {FITC}-AQIIANN
notes: Alanine variant of CM7-1 at position 1
[8]
  EC50: 2070 nM

B12: FITC-CM7-1.5 (FITC-DQIIAAN) (peptide)
peptide: {FITC}-DQIIAAN
notes: Alanine variant of CM7-1 at position 6
[8]
  EC50: 15200 nM

B13: FITC-CM7-1.2 (FITC-DAIIANN) (peptide)
peptide: {FITC}-DAIIANN
notes: Alanine variant of CM7-1 at position 2
[8]
  EC50: 1880 nM
